# Biological target: T1, Recombinant Human DLL4 (R&D Systems Cat#1506-D4/CF) (human, UniProt Q9NR61 27-524)
# T1 construct: also called delta-like protein 4; Delta-like 4
# Assay: ECL (MSD) multispot binding assay, immobilised recombinant human DLL4, Fab at 0.04 uM
# Protocol: An 150 μl aliquot of 1% Bovine Serum Albumin (BSA) in Tris-buffered Saline Tween (TBST) was added to each well and allowed to incubate for 30 min at 20° C. followed by washing and tap drying to completely remove any residual solution. Subsequently, a 12.5 μl aliquot of 1% BSA TBST was added to each well followed by the addition of a 12.5 μl aliquot of a purified Fab. The plate was sealed and incubated for 1 hour at 20° C. with shaking
# TAG-detection antibody at 25 μl was added to each well and allowed to incubate for 1 hour at 20° C. with shaking. Finally, 15 μl of Read Buffer P with Surfactant (Cat # R92PC-1, Meso Scale Discovery) was added to each well. The electrochemiluminescence was measured using a Sector Imager 2400 (Meso Scale Discovery). Data was analyzed by comparing the ECL signals for an antigen to the blank of each well. A signal to blank ratio of 4 or more was considered a “Hit” Fab.
row,Binder,ECL Signal/Noise
1,"Fab VH5-51_IGHD5-18*01>3_IGHJ4*01 G100K/G104T (H:KT) & V3-4_IGLJ1*01 G95A (Fab, V domains shown, Fab; CH1 (His6/Flag tags, plasmid A) and lambda CL (plasmid E) as for the parent) VH: EVQLVQSGAEVKKPGESLKISCKGSGYSFTSYWIGWVRQMPGKGLEWMGIIYPGDSDTRYSPSFQGQVTISADKSISTAYLQWSSLKASDTAMYYCARRKYSYTYDYFDYWGQGTLVTVSS VL: QTVVTQEPSFSVSPGGTVTLTCGLSSGSVSTSYYPSWYQQTPGQAPRTLIYSTNTRSSGVPDRFSGSILGNKAALTITGAQADDESDYYCVLYMASGISYVFGTGTKVTVL",34.4
2,"Fab VH5-51_IGHD5-18*01>3_IGHJ4*01 G100K/G104T (H:KT) & V3-4_IGLJ1*01 G97A (Fab, V domains shown, Fab; CH1 (His6/Flag tags, plasmid A) and lambda CL (plasmid E) as for the parent) VH: EVQLVQSGAEVKKPGESLKISCKGSGYSFTSYWIGWVRQMPGKGLEWMGIIYPGDSDTRYSPSFQGQVTISADKSISTAYLQWSSLKASDTAMYYCARRKYSYTYDYFDYWGQGTLVTVSS VL: QTVVTQEPSFSVSPGGTVTLTCGLSSGSVSTSYYPSWYQQTPGQAPRTLIYSTNTRSSGVPDRFSGSILGNKAALTITGAQADDESDYYCVLYMGSAISYVFGTGTKVTVL",24.7
3,"Fab VH5-51_IGHD5-18*01>3_IGHJ4*01 G100K/G104T (H:KT) & V3-4_IGLJ1*01 I98A (Fab, V domains shown, Fab; CH1 (His6/Flag tags, plasmid A) and lambda CL (plasmid E) as for the parent) VH: EVQLVQSGAEVKKPGESLKISCKGSGYSFTSYWIGWVRQMPGKGLEWMGIIYPGDSDTRYSPSFQGQVTISADKSISTAYLQWSSLKASDTAMYYCARRKYSYTYDYFDYWGQGTLVTVSS VL: QTVVTQEPSFSVSPGGTVTLTCGLSSGSVSTSYYPSWYQQTPGQAPRTLIYSTNTRSSGVPDRFSGSILGNKAALTITGAQADDESDYYCVLYMGSGASYVFGTGTKVTVL",32.6
4,"Fab VH5-51_IGHD5-18*01>3_IGHJ4*01 G100K/G104T (H:KT) & V3-4_IGLJ1*01 L92A (Fab, V domains shown, Fab; CH1 (His6/Flag tags, plasmid A) and lambda CL (plasmid E) as for the parent) VH: EVQLVQSGAEVKKPGESLKISCKGSGYSFTSYWIGWVRQMPGKGLEWMGIIYPGDSDTRYSPSFQGQVTISADKSISTAYLQWSSLKASDTAMYYCARRKYSYTYDYFDYWGQGTLVTVSS VL: QTVVTQEPSFSVSPGGTVTLTCGLSSGSVSTSYYPSWYQQTPGQAPRTLIYSTNTRSSGVPDRFSGSILGNKAALTITGAQADDESDYYCVAYMGSGISYVFGTGTKVTVL",30.3
5,"Fab VH5-51_IGHD5-18*01>3_IGHJ4*01 G100K/G104T (H:KT) & V3-4_IGLJ1*01 M94A (Fab, V domains shown, Fab; CH1 (His6/Flag tags, plasmid A) and lambda CL (plasmid E) as for the parent) VH: EVQLVQSGAEVKKPGESLKISCKGSGYSFTSYWIGWVRQMPGKGLEWMGIIYPGDSDTRYSPSFQGQVTISADKSISTAYLQWSSLKASDTAMYYCARRKYSYTYDYFDYWGQGTLVTVSS VL: QTVVTQEPSFSVSPGGTVTLTCGLSSGSVSTSYYPSWYQQTPGQAPRTLIYSTNTRSSGVPDRFSGSILGNKAALTITGAQADDESDYYCVLYAGSGISYVFGTGTKVTVL",53.1
6,"Fab VH5-51_IGHD5-18*01>3_IGHJ4*01 G100K/G104T (H:KT) & V3-4_IGLJ1*01 S96A (Fab, V domains shown, Fab; CH1 (His6/Flag tags, plasmid A) and lambda CL (plasmid E) as for the parent) VH: EVQLVQSGAEVKKPGESLKISCKGSGYSFTSYWIGWVRQMPGKGLEWMGIIYPGDSDTRYSPSFQGQVTISADKSISTAYLQWSSLKASDTAMYYCARRKYSYTYDYFDYWGQGTLVTVSS VL: QTVVTQEPSFSVSPGGTVTLTCGLSSGSVSTSYYPSWYQQTPGQAPRTLIYSTNTRSSGVPDRFSGSILGNKAALTITGAQADDESDYYCVLYMGAGISYVFGTGTKVTVL",57.9
7,"Fab VH5-51_IGHD5-18*01>3_IGHJ4*01 G100K/G104T (H:KT) & V3-4_IGLJ1*01 S99A (Fab, V domains shown, Fab; CH1 (His6/Flag tags, plasmid A) and lambda CL (plasmid E) as for the parent) VH: EVQLVQSGAEVKKPGESLKISCKGSGYSFTSYWIGWVRQMPGKGLEWMGIIYPGDSDTRYSPSFQGQVTISADKSISTAYLQWSSLKASDTAMYYCARRKYSYTYDYFDYWGQGTLVTVSS VL: QTVVTQEPSFSVSPGGTVTLTCGLSSGSVSTSYYPSWYQQTPGQAPRTLIYSTNTRSSGVPDRFSGSILGNKAALTITGAQADDESDYYCVLYMGSGIAYVFGTGTKVTVL",41
